Positions count from the first letter of the chain named.

For data set [1], the target named is T1, rLARP6 (recombinant human LARP6, LAM+RRM only) (Homo sapiens, UniProt Q9BRS8 73-303).
T1 sequence: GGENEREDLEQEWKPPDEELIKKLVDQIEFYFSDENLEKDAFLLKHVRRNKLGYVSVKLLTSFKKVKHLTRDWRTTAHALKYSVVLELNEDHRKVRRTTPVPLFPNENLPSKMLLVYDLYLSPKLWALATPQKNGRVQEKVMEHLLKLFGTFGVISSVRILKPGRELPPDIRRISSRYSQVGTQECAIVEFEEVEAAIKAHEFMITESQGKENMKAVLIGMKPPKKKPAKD
Briefly: EMSA; 5 mM Mg2+; monomer and dimer complexes; 10 mM Tris pH 7.5, 100 mM KCl, 5 mM MgCl2, room temperature, 10 min; 6% native gel, SYBR Gold. As to conditions: protein: recombinant. On the technique in general: Mobility shift assays separate free from complexed probe on a gel.

Data set [2] concerns the target T1, rLARP6 (recombinant human LARP6, …). The data set can be described thus: EMSA; 5 mM Mg2+; 10 mM Tris pH 7.5, 100 mM KCl, 5 mM MgCl2, room temperature, 10 min; 6% native gel, SYBR Gold. The note with it: protein: recombinant; label: SYBR Gold stain.

B1: xTUBA1CL RNA probe (ssRNA)
RNA: GAGGGAGAAGAAUAUUAAAUAAUAAAUCAAAAGCUUCACAAUAAUACCUGCAGAUUUUGUUUGAAAUAAUAAUUUUGAAUAAAUACGUUUUUAUCUUGUA
As to B1, in data set [1] (label: SYBR Gold stain (Results text says radiolabeled)), the binding result is reported as “binds”.

B2: hCOL1A2 WT RNA (structured_RNA)
RNA: CCACAAAGAGUCUACAUGUCUAGGGUCUAGACAUGUUCAGCUUUGUGG
Consider B2, for which the binding result in data set [1] (label: SYBR Gold stain) is given as “binds”.

B3: hCOL1A2 MUT RNA (structured_RNA)
RNA: B2 RNA with A9U, U11A, C38A, A39U, G40U
Regarding B3, in data set [2], the binding result is “no binding”.

The values are drawn from publication PMC11208920, “The binding of LARP6 and DNAAF6 in biomolecular condensates influences ciliogenesis of multiciliated cells”.
